Measured values published in paper PMC4653696 (The Journal of Biological Chemistry, 2015).

Key:
[1] = biological target: T1, Cdc11(E294C)-capped, otherwise Cys-less septin hetero-octamer (Cdc11-Cdc12-Cdc3-Cdc10-Cdc10-Cdc3-Cdc12-Cdc11) (S. cerevisiae, UniProt P32458 1-415; P32468 1-407; P32457 1-520; P25342 1-322, C43F | C137A | C138A | E294C | C40A | C278S | C124V | C253V | C279V | C266S, Alexa Fluor 555 maleimide (donor) or Alexa Fluor 647 maleimide (acceptor) on C294 (E294C); 0.7-0.8 dye molecules per subunit); assay: FRET or BRET; 25 nM donor (AF555)-labelled octamers titrated with acceptor (AF647)-labelled octamers, serial dilutions from 100 nM; 45 mM KCl, 50 mM Tris-HCl pH 8.0; room temperature, 1 h equilibration; triplicate; PCA and curve fit; apparent Kd of end-to-end association of rods; details: both partners purified
T1 construct: intact CTE (residues 303-415) restored; Cdc12, S. cerevisiae mitotic septin, Cys-less variant; Cdc3, S. cerevisiae mitotic septin, Cys-less variant; Cdc10, S. cerevisiae mitotic septin, Cys-less variant; The same preparation was labelled separately with donor (AF555) or acceptor (AF647); both are written as this one molecule; also called Cdc11^AF555; Cdc11^AF647; source: E. coli NiCo21 (DE3), …

[2] = biological target: T2, Shs1(E344C)-capped, otherwise Cys-less septin hetero-octamer (Shs1-Cdc12-Cdc3-Cdc10-Cdc10-Cdc3-Cdc12-Shs1) (S. cerevisiae, UniProt Q07657 1-551; P32468 1-407; P32457 1-520; P25342 1-322, C29V | C148S | E344C | C40A | C278S | C124V | C253V | C279V | C266S, Alexa Fluor 555 maleimide (donor) or Alexa Fluor 647 maleimide (acceptor) on C344 (E344C)); assay: as above; details: both partners purified
T2 construct: Cdc12, S. cerevisiae mitotic septin, Cys-less variant; Cdc3, S. cerevisiae mitotic septin, Cys-less variant; Cdc10, S. cerevisiae mitotic septin, Cys-less variant; Donor- and acceptor-labelled preparations are written as this one molecule; also called Shs1^AF555; Shs1^AF647; source: E. coli NiCo21 (DE3), subunits co-expressed, purified (IMAC, chitin-agarose flow-through, SEC), maleimide …

[3] = biological target: T3, Shs1(Δ2–18/Δα0 E344C)-capped, otherwise Cys-less septin hetero-octamer (S. cerevisiae, UniProt Q07657 1-551; P32468 1-407; P32457 1-520; P25342 1-322, Δ2–18 | C29V | C148S | E344C | C40A | C278S | C124V | C253V | C279V | C266S, Alexa Fluor 555 maleimide (donor) on C344 (E344C)); assay: as above; details: both partners purified
T3 construct: Cdc12, S. cerevisiae mitotic septin, Cys-less variant; Cdc3, S. cerevisiae mitotic septin, Cys-less variant; Cdc10, S. cerevisiae mitotic septin, Cys-less variant; also called Shs1 Δα0^AF555; Shs1(Δα0) complexes; source: E. coli NiCo21 (DE3), subunits co-expressed, purified (IMAC, chitin-agarose flow-through, SEC), maleimide dye-labelled; not shown: His6, N-terminal, kept; copies: 2 + 2 + 2 + 2

[4] = biological target: T1, Cdc11(E294C)-capped, otherwise Cys-less …; assay: as above; details: both partners purified; remark: listed apart in the source
[5] = biological target: the molecule itself; assay: as above
[6] = biological target: T1, Cdc11(E294C)-capped, otherwise Cys-less …; assay: FRET or BRET; 25 nM Cdc11^AF555 octamers assembled into filaments at low salt, titrated with Bni5^AF647 (maximum 500 nM); apparent Kd; details: both partners purified
[7] = biological target: T1, Cdc11(E294C)-capped, otherwise Cys-less …; assay: FRET or BRET; 15 nM Cdc11^AF555 octamers assembled into filaments at low salt, titrated with Bni5^AF647 (maximum 500 nM); apparent Kd; details: both partners purified

T3 sequence (Q07657 other isoform, or with tags, fused parts or gaps with the stated changes): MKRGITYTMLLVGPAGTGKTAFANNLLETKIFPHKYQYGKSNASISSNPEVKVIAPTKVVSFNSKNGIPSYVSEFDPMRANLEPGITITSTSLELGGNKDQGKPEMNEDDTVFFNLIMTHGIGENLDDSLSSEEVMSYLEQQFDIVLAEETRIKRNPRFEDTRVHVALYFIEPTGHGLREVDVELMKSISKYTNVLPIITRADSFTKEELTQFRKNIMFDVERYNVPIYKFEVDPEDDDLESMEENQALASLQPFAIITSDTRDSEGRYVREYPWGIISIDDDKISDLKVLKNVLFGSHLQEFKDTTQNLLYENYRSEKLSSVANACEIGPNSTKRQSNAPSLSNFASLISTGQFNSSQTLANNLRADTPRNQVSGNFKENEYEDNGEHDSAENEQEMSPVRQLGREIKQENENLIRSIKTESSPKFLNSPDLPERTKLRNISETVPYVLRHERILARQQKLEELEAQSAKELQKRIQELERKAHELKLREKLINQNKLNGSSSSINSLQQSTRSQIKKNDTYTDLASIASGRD

B1: Shs1(E344C ΔCTE)-capped, otherwise Cys-less septin hetero-octamer (complex, S. cerevisiae)
chain 1: MSTASTPPINLFRRKKEHKRGITYTMLLVGPAGTGKTAFANNLLETKIFPHKYQYGKSNASISSNPEVKVIAPTKVVSFNSKNGIPSYVSEFDPMRANLEPGITITSTSLELGGNKDQGKPEMNEDDTVFFNLIMTHGIGENLDDSLSSEEVMSYLEQQFDIVLAEETRIKRNPRFEDTRVHVALYFIEPTGHGLREVDVELMKSISKYTNVLPIITRADSFTKEELTQFRKNIMFDVERYNVPIYKFEVDPEDDDLESMEENQALASLQPFAIITSDTRDSEGRYVREYPWGIISIDDDKISDLKVLKNVLFGSHLQEFKDTTQNLLYENYRSEKLSSVANACEIGP
chain 2: MSAATATAAPVPPPVGISNLPNQRYKIVNEEGGTFTVMLAGESGLGKTTFINTLFQTVLKRADGQQHRQEPIRKTVEIDITRALLEEKHFELRVNVIDTPGFGDNVNNNKAWQPLVDFIDDQHDSYMRQEQQPYRTKKFDLRVHAVLYFIRPTGHGLKPIDIETMKRLSTRANLIPVIAKADTLTAQELQQFKSRIRQVIEAQEIRIFTPPLDADSKEDAKSGSNPDSAAVEHARQLIEAMPFAIVGSEKKFDNGQGTQVVARKYPWGLVEIENDSHSDFRKLRALLLRTYLLDLISTTQEMHYETYRRLRLEGHENTGEGNEDFTLPAIAPARKLSHNPRYKEEENALKKYFTDQVKAEEQRFRQWEQNIVNERIRLNGDLEEIQGKVKKLEEQVKSLQVKKSHLK
chain 3: MSLKEEQVSIKQDPEQEERQHDQFNDVQIKQESQDHDGVDSQYTNGTQNDDSERFEAAESDVKVEPGLGMGITSSQSEKGQVLPDQPEIKFIRRQINGYVGFANLPKQWHRRSIKNGFSFNLLVVGPDGIGKTTLMKTLFNNDDIEANLVKDYEEELANDQEEEEGQGEGHENQSQEQRHKVKIKSYESVIEENGVKLNLNVIDTEGFGDFLNNDQKSWDPIIKEIDSRFDQYLDAENKINRHSINDKRIHAVLYFIEPTGHYLKPLDLKFMQSVYEKVNLIPVIAKSDILTDEEILSFKKTIMNQLIQSNIELFKPPIYSNDDAENSHLSERLFSSLPYAVIGSNDIVENYSGNQVRGRSYPWGVIEVDNDNHSDFNLLKNLLIKQFMEELKERTSKILYENYRSSKLAKLGIKQDNSVFKEFDPISKQQEEKTLHEAKLAKLEIEMKTVFQQKVSEKEKKLQKSETELFARHKEMKEKLTKQLKALEDKKKQLELSINSASPNVNHSPVPTKKKGFLR
chain 4: MDPLSSVQPASYVGFDTITNQIEHRLLKKGFQFNIMVVGQSGLGKSTLINTLFASHLIDSATGDDISALPVTKTTEMKISTHTLVEDRVRLNINVIDTPGFGDFIDNSKAWEPIVKYIKEQHSQYLRKELTAQRERFITDTRVHAILYFLQPNGKELSRLDVEALKRLTEIANVIPVIGKSDTLTLDERTEFRELIQNEFEKYNFKIYPYDSEELTDEELELNRSVRSIIPFAVVGSENEIEINGETFRGRKTRWSAINVEDINQSDFVYLREFLIRTHLQDLIETTSYIHYEGFRARQLIALKENANSRSSAHMSSNAIQR
modifications: Alexa Fluor 555 maleimide (donor) on C344 (E344C)
notes: Cdc12, S. cerevisiae mitotic septin, Cys-less variant; Cdc3, S. cerevisiae mitotic septin, Cys-less variant; Cdc10, S. cerevisiae mitotic septin, Cys-less variant; also called Shs1 ΔCTE^AF555; source: E. coli NiCo21 (DE3), subunits co-expressed, purified (IMAC, chitin-agarose flow-through, SEC), maleimide dye-labelled; not shown: His6, N-terminal, kept; copies: 2 + 2 + 2 + 2
In the case of B1, the Kd [1] is reported as 30.4 nM.

B2: Cdc11(Δα0 E294C)-capped, otherwise Cys-less septin hetero-octamer (complex, S. cerevisiae)
chain 1: MRGITFTVMIVGQSGSGRSTFINTLFGQQVVDTSTTILLPTDTSTEIDLQLREETVELEDDEGVKIQLNIIDTPGFGDSLDNSPSFEIISDYIRHQYDEILLEESRVRRNPRFKDGRVHAALYLINPTGHGLKEIDVEFIRQLGSLVNIIPVISKSDSLTRDELKLNKKLIMEDIDRWNLPIYNFPFDEDEISDEDYETNMYLRTLLPFAIIGSNEVYEMGGDVGTIRGRKYPWGILDVEDSSISDFVILRNALLISHLHDLKNYTHEILYERYRTCALSGESVAAESIRPNLTKLNGSSSSSTTTRRNTNPFKQSNNINNDVLNPASDMHGQSTGENNETYMTREEQIRLEEERLKAFEERVQQELLLKRQELLQREKELREIEARLEKEAKIKQEE
chain 2: B1 chain 2
chain 3: B1 chain 3
chain 4: B1 chain 4
modifications: Alexa Fluor 555 maleimide (donor) or Alexa Fluor 647 maleimide (acceptor) on C294 (E294C)
notes: Cdc12, S. cerevisiae mitotic septin, Cys-less variant; Cdc3, S. cerevisiae mitotic septin, Cys-less variant; Cdc10, S. cerevisiae mitotic septin, Cys-less variant; also called Cdc11 Δα0^AF555; Cdc11 Δα0^AF647; source: E. coli NiCo21 (DE3), subunits co-expressed, purified (IMAC, chitin-agarose flow-through, SEC), maleimide dye-labelled; not shown: His6, N-terminal, kept; copies: 2 + 2 + 2 + 2
Work on B2 yielded a Kd [2] of 8.13 nM, a Kd [3] of 9.89 nM and a Kd [4] of 19.5 nM. The Kd [5] was 33.2 nM.

B3: Bni5 (Bud neck-interacting protein 5), type II myosin-binding protein (natural protein, S. cerevisiae, UniProt P53890 1-448, looked up)
chain: MGLDQDKIKKRLSQIEIDINQMNQMIDENLQLVEPAEDEAVEDNVKDTGVVDAVKVAETALFSGNDGADSNPGDSAQVEEHKTAQVHIPTENEANKSTDDPSQLSVTQPFIAKEQITHTAIAIGDSYNSFVANSAGNEKAKDSCTENKEDGTVNIDQNRGEADVEIIENNDDEWEDEKSDVEEGRVDKGTEENSEIESFKSPMPQNNTLGGENKLDAELVLDKFSSANKDLDIQPQTIVVGGDNEYNHESSRLADQTPHDDNSENCPNRSGGSTPLDSQTKIFIPKKNSKEDGTNINHFNSDGDGQKKMANFETRRPTNPFRVISVSSNSNSRNGSRKSSLNKYDSPVSSPITSASELGSIAKLEKRHDYLSMKCIKLQKEIDYLNKMNAQGSLSMEDGKRLHRAVVKLQEYLDKKTKEKYEVGVLLSRHLRKQIDRGENGQFWIGTK
modifications: Alexa Fluor 647 maleimide on the native cysteines Cys-144, Cys-266 and Cys-375 (2.7 dye molecules per protein)
notes: Bni5, S. cerevisiae; the BNI5 ORF cloned behind His8 and a human rhinovirus 3C protease site in pH3c-LIC; also called Bni5^AF647; acceptor dye-labeled Bni5; source: E. coli NiCo21 (DE3), purified (IMAC, chitin-agarose, SEC), maleimide dye-labelled
Binder B3 has a Kd [6] of 210 nM and a Kd [7] of 222 nM.
